The values below come from patent US20200292534A1 (PROMEGA, published 2020).

The target of experiment [1] is T1, NLpoly11S.
T1 construct: Non-luminescent polypeptide (engineered large fragment of NanoLuc); Used as E. coli clarified lysate or as purified protein; also called 11S (12 - A51T); LSP 11S
T1 chain: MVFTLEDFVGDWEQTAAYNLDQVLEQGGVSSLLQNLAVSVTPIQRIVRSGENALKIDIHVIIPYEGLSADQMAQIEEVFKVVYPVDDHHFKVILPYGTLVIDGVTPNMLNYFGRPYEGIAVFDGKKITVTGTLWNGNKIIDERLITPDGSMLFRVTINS
The experiment is described as follows: luminescence of purified NLpoly11S in NanoGlo with peptide.

Experiment [2] deals with T1, NLpoly11S. The experiment is described as follows: spectral scan of luminescence, purified NLpoly11S + peptide.
In experiment [3] the target is T2, NLpoly WT.
T2 construct: also called WT NLpoly
T2 chain: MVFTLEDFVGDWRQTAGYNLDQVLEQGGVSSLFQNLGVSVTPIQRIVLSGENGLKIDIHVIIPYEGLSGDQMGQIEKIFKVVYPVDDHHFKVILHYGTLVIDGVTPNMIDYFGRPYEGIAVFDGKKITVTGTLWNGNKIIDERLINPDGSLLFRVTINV
Description: BRET wavelength scan, NLpoly WT lysate + peptide. A general note: Bioluminescence resonance energy transfer reports proximity on the nanometre scale.

Experiment [4] deals with T1, NLpoly11S. Description: luminescence complementation titration on purified NLPoly11S, 1 site specific binding fit.
Experiment [5] has as its target T1, NLpoly11S. The experiment is described as follows: luminescence complementation titration, one-site specific binding fit.
For experiment [6], the target named is T1, NLpoly11S. The experiment is described as follows: luminescence complementation titration at several furimazine concentrations, 1-site fit.
Experiment [7] has as its target T2, NLpoly WT. The experiment is described as follows: luminescence complementation titration (E. coli lysate NLpoly, synthetic NLpep), one site-specific binding fit.

Starred links: 1 amine or outer side, 2 acyl side, 3 side chain; linkers in the order of their positions; H or OH if unused. No end group written: not given here. NH(CH2)3(OCH2CH2)2O(CH2)3NH = C(CN[*:1])COCCOCCOCCCN[*:2]

In the case of GWALFKK (not fully specified (N-terminus); printed as Dabcyl-GWALFKK, Quencher peptide) [Dabcyl-GWALFKK], the binding result with NLpoly11S [1] is recorded as “binds”.

B1: PBI-4877 (peptide)
peptide: GVTGWRLCERILA-{NH(CH2)3(OCH2CH2)2O(CH2)3NH-6‑tetramethylrhodamine}
notes: also called NLpep1-TMR; NLPep1-fluorophore
As to B1, the binding result in the experiment with NLpoly11S [2] and with NLpoly WT [3] was “binds” in each case.

B2: GWALFKK (peptide)
peptide: GWALFKK
notes: Dark peptide; also called NLpep162 (w/o Met)
Consider B2, for which the binding result in the experiment with NLpoly11S [1] is given as “binds”.

B3: NLpep114 (peptide)
peptide: VTGYRLFEEIL
notes: Synthetic; also called NLpep114 (w/o Met)
As for B3, in the experiment with NLpoly11S [4], the binding result was “binds”.

The molecule Ac-VTGYRLFEEIL-NH2 [array2.52] yielded a Kd with NLpoly11S [5] of 104 µM.

As to GVTGWRLCERILA (also called NLpepWT; NLPep1 (WT)) [NLpep1], the binding result in the experiment with NLpoly11S [6] was “binds”. In the experiment with NLpoly WT [7], the Kd was ~10 µM.

In general, Kd refers to the concentration at which binding is half-saturated. Read a high Kd as lower affinity.
